Here are results for one substance from patent publication US7670782B2, “Screening of compounds for CAT1 transporter activity” (XenoPort, Inc., priority 2005, dated 2010).

The series has as its system NCCC[C@H](N)C(=O)O. The series is described as follows: cells, lysate or membranes. The note with it: other: direct uptake into LLCPK-TREx-hCAT1 cells.

hCAT1 (Homo sapiens), sequence (chain, as listed by the source): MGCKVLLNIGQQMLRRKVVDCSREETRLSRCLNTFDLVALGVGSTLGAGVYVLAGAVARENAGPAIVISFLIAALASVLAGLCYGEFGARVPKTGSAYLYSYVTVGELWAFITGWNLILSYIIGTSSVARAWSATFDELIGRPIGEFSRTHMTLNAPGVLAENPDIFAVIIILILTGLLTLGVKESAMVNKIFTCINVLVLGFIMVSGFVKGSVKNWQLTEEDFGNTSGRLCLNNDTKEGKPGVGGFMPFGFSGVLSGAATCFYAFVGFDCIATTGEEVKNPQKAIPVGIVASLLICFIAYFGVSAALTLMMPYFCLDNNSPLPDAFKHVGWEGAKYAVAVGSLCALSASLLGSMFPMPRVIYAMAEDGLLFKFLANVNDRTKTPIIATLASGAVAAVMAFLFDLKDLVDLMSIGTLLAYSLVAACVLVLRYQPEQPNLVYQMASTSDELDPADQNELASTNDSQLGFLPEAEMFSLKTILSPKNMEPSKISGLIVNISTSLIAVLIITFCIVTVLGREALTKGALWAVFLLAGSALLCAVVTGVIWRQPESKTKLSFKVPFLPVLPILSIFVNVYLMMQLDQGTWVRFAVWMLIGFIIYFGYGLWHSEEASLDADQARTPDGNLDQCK

By Km is commonly meant the concentration of substrate that gives half-maximal velocity. Take hCAT1 (Homo sapiens): the Km was 200 µM. Also, the Km (5 minutes at room temperature, specific uptake (+TET minus no TET)) is 184 µM.
